Assay [1] concerns the target PD-L1 on CHO-PD-L1 cells (Cat#YMAK-C006, ImmuneOnco) (UniProt Q9NZQ7 19-290, limits assumed). Briefly: cell-based or functional assay.
Assay [2] has as its target T1, monkey PD-L1 (Cat#90251-C08H, sino Biological) (monkey, UniProt G7PSE7 19-238).
T1 construct: also called PD-L1-his
Briefly: BLI (Gator), human Fc probe, Kinetics Assay mode, 25 C.

Assay [3] concerns the target recombinant human VEGF-165 protein (Cat#11066-HNAH, Sino Biologicals) (human, UniProt P15692-4 27-191). Nature of the assay: ELISA, VEGF-165 coated 50 ng/well.

T1 sequence (G7PSE7 entry or part of it C08H C08H limits assumed, form in doubt): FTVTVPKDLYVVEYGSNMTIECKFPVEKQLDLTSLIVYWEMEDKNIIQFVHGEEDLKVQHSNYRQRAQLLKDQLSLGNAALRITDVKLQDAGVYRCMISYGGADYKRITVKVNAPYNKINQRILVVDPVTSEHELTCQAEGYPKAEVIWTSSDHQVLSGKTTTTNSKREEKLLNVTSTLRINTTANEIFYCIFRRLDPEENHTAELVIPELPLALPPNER
Chain of PD-L1 on CHO-PD-L1 cells (Cat#YMAK-C006, ImmuneOnco) (Q9NZQ7 19-290 limits assumed): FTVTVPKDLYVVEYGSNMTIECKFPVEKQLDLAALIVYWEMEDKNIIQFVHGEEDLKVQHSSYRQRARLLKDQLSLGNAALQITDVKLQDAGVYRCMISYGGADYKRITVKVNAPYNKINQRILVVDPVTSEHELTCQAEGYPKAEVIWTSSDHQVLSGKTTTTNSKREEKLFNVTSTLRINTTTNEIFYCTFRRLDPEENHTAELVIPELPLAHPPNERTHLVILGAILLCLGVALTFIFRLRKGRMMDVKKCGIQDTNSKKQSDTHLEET
Chain of recombinant human VEGF-165 protein (Cat#11066-HNAH, Sino Biologicals) (P15692 other isoform, or with tags, fused parts or gaps limits assumed): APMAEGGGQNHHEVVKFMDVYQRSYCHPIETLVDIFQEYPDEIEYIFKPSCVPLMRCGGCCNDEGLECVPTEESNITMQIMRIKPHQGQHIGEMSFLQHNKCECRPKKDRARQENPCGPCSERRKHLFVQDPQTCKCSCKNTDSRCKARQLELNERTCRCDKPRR

B1: IMM2518 (bispecific antibody, human IgG1, kappa)
heavy: SDTGRPFVEMYSEIPEIIHMTEGRELVIPCRVTSPNITVTLKKFPLDTLIPDGKRIIWDSRKGFIISAATYKEIGLLTCEATVNGHLYKTNYLTHRQTNTGGGGSGGGGSGGGGSQVQLVQSGAEVKKPGASVKVSCKASGYTFTSNWMHWVRQAPGQGLEWMGMIHPNSGSSNYNEKFKSRVTMTRDTSTSTVYMELSSLRSEDTAVYYCARSYYGSSPYYFDYWGQGTLVTVSSASTKGPSVFPLAPSSKSTSGGTAALGCLVKDYFPEPVTVSWNSGALTSGVHTFPAVLQSSGLYSLSSVVTVPSSSLGTQTYICNVNHKPSNTKVDKRVEPKSCDKTHTCPPCPAPELLGGPSVFLFPPKPKDTLMISRTPEVTCVVVDVSHEDPEVKFNWYVDGVEVHNAKTKPREEQYNATYRVVSVLTVLHQDWLNGKEYKCKVSNKALPAPIAATISKAKGQPREPQVYTLPPSREEMTKNQVSLTCLVKGFYPSDIAVEWESNGQPENNYKTTPPVLDSDGSFFLYSKLTVDKSRWQQGNVFSCSVMHEALHNHYTQKSLSLSPGK
light: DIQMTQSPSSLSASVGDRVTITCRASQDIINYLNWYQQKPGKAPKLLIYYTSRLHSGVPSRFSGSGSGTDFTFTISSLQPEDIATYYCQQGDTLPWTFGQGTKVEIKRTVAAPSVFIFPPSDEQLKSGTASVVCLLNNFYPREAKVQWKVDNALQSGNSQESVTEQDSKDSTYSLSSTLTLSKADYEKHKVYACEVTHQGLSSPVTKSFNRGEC
notes: Anti-PD-L1 IgG IMM2515H with VEGFR1D2 linked by a (G4S)3 linker to the N-terminus of each heavy chain; also called recombinant fusion protein
Turning to B1, the “ADCC (%lysis) against Raji-PD-L1 cells by NK92MI cells expressing FcgRIIIa (158V)” value in assay [1] was 6 fold lower than IMM2515H. For the same molecule, in assay [2], the Kd amounted to 0.441 nM, the koff was 0.000218 s⁻¹ and the kon amounted to 494000 M⁻¹ s⁻¹.

B2: IMM2519 (bispecific antibody, human IgG1, kappa)
heavy: QVQLVQSGAEVKKPGASVKVSCKASGYTFTSNWMHWVRQAPGQGLEWMGMIHPNSGSSNYNEKFKSRVTMTRDTSTSTVYMELSSLRSEDTAVYYCARSYYGSSPYYFDYWGQGTLVTVSSASTKGPSVFPLAPSSKSTSGGTAALGCLVKDYFPEPVTVSWNSGALTSGVHTFPAVLQSSGLYSLSSVVTVPSSSLGTQTYICNVNHKPSNTKVDKRVEPKSCDKTHTCPPCPAPELLGGPSVFLFPPKPKDTLMISRTPEVTCVVVDVSHEDPEVKFNWYVDGVEVHNAKTKPREEQYNATYRVVSVLTVLHQDWLNGKEYKCKVSNKALPAPIAATISKAKGQPREPQVYTLPPSREEMTKNQVSLTCLVKGFYPSDIAVEWESNGQPENNYKTTPPVLDSDGSFFLYSKLTVDKSRWQQGNVFSCSVMHEALHNHYTQKSLSLSPGK
light: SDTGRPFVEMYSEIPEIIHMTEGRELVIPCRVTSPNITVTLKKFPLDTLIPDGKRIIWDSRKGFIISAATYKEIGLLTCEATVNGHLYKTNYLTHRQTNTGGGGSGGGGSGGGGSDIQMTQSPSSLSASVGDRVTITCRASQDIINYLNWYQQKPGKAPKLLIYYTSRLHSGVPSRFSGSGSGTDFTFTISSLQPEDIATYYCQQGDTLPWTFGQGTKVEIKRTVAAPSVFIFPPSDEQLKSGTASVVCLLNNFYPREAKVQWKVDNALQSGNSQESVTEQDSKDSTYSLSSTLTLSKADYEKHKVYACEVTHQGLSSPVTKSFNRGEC
notes: Anti-PD-L1 IgG IMM2515H with VEGFR1D2 linked by a (G4S)3 linker to the N-terminus of each light chain; also called recombinant fusion protein
Turning to B2, in assay [3], the binding result is on record as “binds”.

Source of the values: patent EP4534564A1 (ImmuneOnco Biopharmaceuticals (Shanghai) Inc., dated 2025).
